Publication PMC9909445 (Nature nanotechnology, 2022)

Assays:
[1] = molecular target: T1, human neutrophil elastase (hNE) (human, UniProt P08246 30-267); experiment: MST
T1 sequence (looked up): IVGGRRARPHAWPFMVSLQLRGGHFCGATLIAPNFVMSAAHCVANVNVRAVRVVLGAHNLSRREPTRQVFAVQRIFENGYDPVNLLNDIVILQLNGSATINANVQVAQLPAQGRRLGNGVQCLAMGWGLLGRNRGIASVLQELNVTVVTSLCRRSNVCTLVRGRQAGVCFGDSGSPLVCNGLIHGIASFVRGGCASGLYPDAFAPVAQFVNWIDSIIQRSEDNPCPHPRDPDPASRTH

[2] = molecular target: T2, murine neutrophil elastase (mNE) (mouse, UniProt Q3UP87 27-265); experiment: SPR
T2 sequence (looked up): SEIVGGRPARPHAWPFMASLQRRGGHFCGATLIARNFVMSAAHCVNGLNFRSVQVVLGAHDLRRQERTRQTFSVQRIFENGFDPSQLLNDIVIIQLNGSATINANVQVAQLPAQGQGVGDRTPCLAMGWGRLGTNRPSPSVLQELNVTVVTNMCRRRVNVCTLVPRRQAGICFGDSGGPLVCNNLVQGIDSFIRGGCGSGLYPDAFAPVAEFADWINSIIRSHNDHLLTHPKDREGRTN

- Kd [1]: 2080 ± 1350 nM
- Kd [2]: 1.6 nM
- koff [2]: 8.31e-06 s⁻¹
- kon [2]: 5200 M⁻¹ s⁻¹
B1: NE-binding peptide (NEBP) (peptide)
peptide: CGEAIPMSIPPEVK
